Laboratory results taken from US20150299277A1, “AGENT FOR TREATING OR PREVENTING SYSTEMIC INFLAMMATORY RESPONSE SYNDROME” (THE UNIVERSITY OF TOKYO, priority 2012, published 2015).
“Also recorded” adds a separate entry of the source.

How the values were obtained:
each histone [1] = assay: ELISA binding assay; set-up: species or system human; settings: buffers containing 4 mM CaCl2 or 4 mM EDTA
Experimental: Recombinant human histone (NEB) was adjusted to a concentration of 1 μg/mL in TBS, added to a 96 well ELISA plate, and immobilized at 4° C. overnight. The solution was discarded, a blocking buffer (TBS, 0.1% Triton-X100, 1% BSA) was added, and the plate was incubated at room temperature for 2 hr. The plate was washed four times with a wash buffer (TBS, 0.1% Triton-X100), recombinant PTX3 diluted to various concentrations with the blocking buffer was added to each well, and reacted at room temperature for 1 hr. After washing four times with the wash buffer, HRP-labeled antibody diluted with the blocking buffer was added, and reacted at room temperature for 1 hr. After washing four times with the wash buffer, TMB solution was added to carry out a color development reaction for 30 min, and the absorbance at 450 nm was measured. […]
The binding level between immobilized each recombinant histone and tag-free recombinant human PTX3 (rhPTX3) was measured by binding assay (ELISA). […] ELISA was performed with duplicate wells for each point, and means and standard deviations were calculated from three independent experiments.
The binding level between immobilized each recombinant histone and a tagged human PTX3 fragment was measured by binding assay (ELISA). […] ELISA was performed with duplicate wells for each point, and means and standard deviations were calculated from three independent experiments.

histone H4 = histone H4 (Homo sapiens, UniProt P62805); assay: ELISA binding assay; set-up: purchased NEB; settings: immobilized recombinant histone, absorbance at 450 nm
Experimental: (§1) Recombinant human histone (NEB) was adjusted to a concentration of 1 μg/mL in TBS, added to a 96 well ELISA plate, and immobilized at 4° C. overnight. The solution was discarded, a blocking buffer (TBS, 0.1% Triton-X100, 1% BSA) was added, and the plate was incubated at room temperature for 2 hr. The plate was washed four times with a wash buffer (TBS, 0.1% Triton-X100), recombinant PTX3 diluted to various concentrations with the blocking buffer was added to each well, and reacted at room temperature for 1 hr. After washing four times with the wash buffer, HRP-labeled antibody diluted with the blocking buffer was added, and reacted at room temperature for 1 hr. After washing four times with the wash buffer, TMB solution was added to carry out a color development reaction for 30 min, and the absorbance at 450 nm was measured. Assay was performed using all the buffers containing 4 mM CaCl2 or 4 mM EDTA.
(§2) The binding level between immobilized each recombinant histone and tag-free recombinant human PTX3 (rhPTX3) was measured by binding assay (ELISA). For the detection, HRP-labeled anti-PTX3 monoclonal antibody (PPZ1228) was used. ELISA was performed with duplicate wells for each point, and means and standard deviations were calculated from three independent experiments.
(§3) The binding level between immobilized each recombinant histone and a tagged human PTX3 fragment was measured by binding assay (ELISA). For detection, HRP-labeled anti-His (6×His) antibody was used. ELISA was performed with duplicate wells for each point, and means and standard deviations were calculated from three independent experiments.

each histone [2] = assay: BIAcore / surface plasmon resonance (SPR) measurement; assay type: binding, human; settings: immobilized recombinant histone
Experimental: For the measurement, BIAcore 3000 or T200 (GE Healthcare) was used. Recombinant human histone was immobilized on CM5 sensor chip by an amine coupling kit (GE Healthcare). The reaction with recombinant PTX3 was performed using a buffer (150 mM NaCl, 20 mM HEPES, 0.005% surfactant P20 (pH 7.4)) at a flow rate of 20 μl/min. Measurement was performed using the buffer containing […]. The sensor chip was regenerated in IM sodium acetate (10 μL, pH 7.2) and 10 mM NaOH (10 μL).
The binding of immobilized each recombinant histone, and Myc- and His-tagged human PTX3 fragment was measured by surface plasmon resonance (SPR). The highest concentration of each PTX3 was as follows. full-length PTX3: 1 nM, N-terminal domain of PTX3: 5 nM, C-terminal domain of PTX3: 50 nM. The assay buffer contained 4 mM CaCl2 (Ca^2+) or 4 mM EDTA/EGTA. The affinity measured by SPR was calculated from three experiments.

histone H1 = target: T1, histone H1 (Homo sapiens, UniProt P07305); assay: ELISA binding assay; settings: immobilized recombinant histone, absorbance at 450 nm
T1 construct: purchased NEB
T1 sequence (P07305 whole entry): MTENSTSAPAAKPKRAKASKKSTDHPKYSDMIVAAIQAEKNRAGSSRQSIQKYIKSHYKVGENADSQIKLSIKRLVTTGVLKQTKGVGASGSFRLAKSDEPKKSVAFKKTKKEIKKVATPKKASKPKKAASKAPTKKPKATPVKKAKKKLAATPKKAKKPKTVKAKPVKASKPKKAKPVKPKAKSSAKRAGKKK
Experimental: as §1, §2, §3

histone H3 = target: T2, histone H3 (Homo sapiens, UniProt P68431); assay: ELISA binding assay; settings: immobilized recombinant histone, absorbance at 450 nm
T2 construct: purchased NEB
Experimental: as §1, §2, §3

each histone variant = assay: Aggregation of each histone variant and PTX3 fragment, absorbance at 310 nm; assay type: binding; settings: histone variant 50 μg/mL, PTX3 fragment 30 μg/mL
Experimental: Each histone variant (50 μg/mL) and each PTX3 fragment (30 μg/mL) were mixed, and the absorbance at the wavelength of 310 nm was measured. Before mixing, samples were dialyzed against 4 mM CaCl2-containing TBS.

[3] = system: Calf Thymus Histones on HUVEC; assay: Cytotoxic assay: suppression of histone cytotoxicity on HUVEC; assay type: cell-based, human; settings: 100 μg/mL Calf Thymus Histones, 40 μg/mL protein, 1 hr, PI staining, FACS
Experimental: After culturing for 1 hr in a medium concurrently containing 100 μg/mL Calf Thymus Histones and APC (200 nM), PTX3 (40 μg/mL), CRP (40 μg/mL) or SAP (40 μg/mL), the level of toxic activity was measured by FACS.
Normal human umbilical vein endothelial cells (HUVECs) were cultured in EGM2 medium (Clonetics). The cells after culture were washed with PBS, added with Opti-MEM medium containing an product of incubation of activated protein C (APC), PTX3, C reactive protein (CRP) or Serum amyloid P component (SAP) with histone for 1 hr, and the cells were further cultured for 1 hr. Propidium iodide (PI) was added to the medium after culture at a final concentration of 10 μg/mL, and the cells were stained for 10 min. The cells were washed with PBS, detached and analyzed by flow cytometry.
The histone cytotoxicity on HUVEC was evaluated by propidium iodide (PI) staining.
Lastly, capacity of suppressing the cytotoxic activity of histone was confirmed. Since this experiment requires a certain amount of protein and an endotoxin-elimination as treatment, a protein was expressed and purified at a 500 mL culture scale, and subjected to an endotoxin-elimination treatment (FIG. 18). In the case of PTX3 N-terminal domain, about 10 mg was obtained at a 500 mL culture scale, and a loss by the endotoxin-elimination treatment was scarcely observed. […] A capacity of fragment proteins obtained at a 500 mL scale on HUVEC to suppress histone cytotoxicity was studied. […] In consideration of the experiments relating to the binding and aggregation, all fragments were considered to possibly have a certain level of suppressive capacity.

fragment H3-8 on HUVEC = assay: Suppression of cytotoxic activity of histone fragment on HUVEC; assay type: cell-based, human; settings: fragment 250 μg/mL; full-length PTX3 at 80 μg/mL; HUVEC 1 hr
Experimental: (§4) Then, a suppressive effect of PTX3 on the cytotoxic activity of fragments […], H3-8, H3-11 and H4-9 was evaluated.
(§5) In the same manner as in FIGS. 7B-D, a suppressive effect of the N-terminal domain of PTX3 on the cytotoxic activity of histone H3 and H4 fragments was evaluated.

fragment H3-11 on HUVEC = assay: as above; assay type: cell-based, human; settings: fragment 250 μg/mL; full-length PTX3 at 80 μg/mL; HUVEC 1 hr
Experimental: as §4, §5

fragment H4-9 on HUVEC = assay: as above; assay type: cell-based, human; settings: fragment 250 μg/mL; full-length PTX3 at 80 μg/mL; HUVEC 1 hr
Experimental: as §4, §5

fragment H3-6 on HUVEC = assay: as above; assay type: cell-based, human; settings: fragment 250 μg/mL; full-length PTX3 at 80 μg/mL; HUVEC 1 hr
Experimental: as §4, §5

Substance | influence of calcium ion on binding to each histone (each histone [1]) | binding to histone H4 (binding assay) (histone H4) | binding to histone H4 (binding assay) (histone H4; listed as N-terminal domain) | affinity for each histone by SPR (each histone [2]) | binding to histone H1 (binding assay) (histone H1) | binding to histone H1 (binding assay) (histone H1; listed as N-terminal domain) | binding to histone H3 (binding assay) (histone H3) | binding to histone H3 (binding assay) (histone H3; listed as N-terminal domain) | aggregation with each histone variant, absorbance at 310 nm (each histone variant) | suppression of toxic activity of Calf Thymus Histones on HUVEC [3] | suppressive effect on cytotoxic activity of fragment H3-8 (fragment H3-8 on HUVEC) | suppressive effect on cytotoxic activity of fragment H3-11 (fragment H3-11 on HUVEC) | suppressive effect on cytotoxic activity of fragment H4-9 (fragment H4-9 on HUVEC) | suppressive effect on cytotoxic activity of fragment H3-6 (fragment H3-6 on HUVEC) | affinity for each histone by SPR (each histone [2]; listed as PTX3) | suppression of toxic activity of Calf Thymus Histones on HUVEC ([3]; listed as PTX3)
N-terminal domain of PTX3: N-terminal domain human PTX3 (18-178 amino acids, SEQ ID NO: 3), tagged, expressed in CHO cells or Escherichia coli | stronger binding was found in the presence of calcium ion | equivalent to that of the full-length PTX3 | strong bindability | full-length PTX3>N-terminal domain>C-terminal domain | equivalent to that of the full-length PTX3 | strong bindability | equivalent to that of the full-length PTX3 | strong bindability | aggregated | suppress toxic activity of histone on HUVEC; also recorded: suppressed | neutralized | neutralized | neutralized | neutralized |  | 
full-length PTX3: full-length human pentraxin 3 (1-381 amino acids, SEQ ID NO: 2), used tag-free or Myc- and His-tagged | stronger binding was found in the presence of calcium ion | strong binding affinity |  | full-length PTX3>N-terminal domain>C-terminal domain | strong binding affinity |  | strong binding affinity |  | aggregated | suppress toxic activity of histone on HUVEC | neutralized | neutralized | neutralized | neutralized | extremely high | suppresses cytotoxic activity of extracellular histone on HUVEC to the same level as APC
